Reference: US8067187

Columns and labels:
[1] = biological target: T1, β2-glycoprotein I purified from fresh human plasma, P02749
T1 chain: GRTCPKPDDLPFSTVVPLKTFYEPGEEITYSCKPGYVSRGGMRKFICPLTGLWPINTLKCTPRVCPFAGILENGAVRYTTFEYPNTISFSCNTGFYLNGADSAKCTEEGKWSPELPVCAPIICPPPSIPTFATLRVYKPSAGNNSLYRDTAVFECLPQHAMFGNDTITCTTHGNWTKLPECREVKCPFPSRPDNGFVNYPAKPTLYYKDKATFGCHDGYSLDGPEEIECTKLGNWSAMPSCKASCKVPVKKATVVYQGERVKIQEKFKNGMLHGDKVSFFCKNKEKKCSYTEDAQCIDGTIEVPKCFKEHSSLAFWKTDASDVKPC

[2] = biological target: T2, heat-denatured misfolded chicken ovalbumin, P01012
T2 chain: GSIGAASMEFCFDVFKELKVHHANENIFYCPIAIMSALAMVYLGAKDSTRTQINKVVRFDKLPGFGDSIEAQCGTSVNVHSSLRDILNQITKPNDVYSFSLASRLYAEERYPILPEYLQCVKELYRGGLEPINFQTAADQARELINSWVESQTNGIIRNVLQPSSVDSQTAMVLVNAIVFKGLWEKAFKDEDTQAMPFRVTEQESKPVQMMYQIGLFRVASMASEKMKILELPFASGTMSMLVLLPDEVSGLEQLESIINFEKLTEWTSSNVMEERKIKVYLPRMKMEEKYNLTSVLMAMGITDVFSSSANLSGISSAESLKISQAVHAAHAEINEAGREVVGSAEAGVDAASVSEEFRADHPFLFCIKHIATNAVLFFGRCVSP

[3] = biological target: T3, recombinant human β2-glycoprotein I, P02749
T3 chain: T1 chain

B1: tissue-type plasminogen activator (tPA, Actilyse, Boehringer-Ingelheim) (protein)
chain: SYQVICRDEKTQMIYQQHQSWLRPVLRSNRVEYCWCNSGRAQCHSVPVKSCSEPRCFNGGTCQQALYFSDFVCQCPEGFAGKCCEIDTRATCYEDQGISYRGTWSTAESGAECTNWNSSALAQKPYSGRRPDAIRLGLGNHNYCRNPDRDSKPWCYVFKAGKYSSEFCSTPACSEGNSDCYFGNGSAYRGTHSLTESGASCLPWNSMILIGKVYTAQNPSAQALGLGKHNYCRNPDGDAKPWCHVLKNRRLTWEYCDVPSCSTCGLRQYSQPQFRIKGGLFADIASHPWQAAIFAKHRRSPGERFLCGGILISSCWILSAAHCFQERFPPHHLTVILGRTYRVVPGEEEQKFEVEKYIVHKEFDDDTYDNDIALLQLKSDSSRCAQESSVVRTVCLPPADLQLPDWTECELSGYGKHEALSPFYSERLKEAHVRLYPSSRCTSQHLLNRTVTDNMLCAGDTRSGGPQANLHDACQGDSGGPLVCLNDGRMTLVGIISWGLGCGQKDVPGVYTKVTNYLDWIRDNMRP
B1 was tested, and the “Plg-activation assay: tPA-mediated conversion of Plg to plasmin, chromogenic substrate S-2251” value [1] was “Recombinant β2GPI, but not β2GPI purified from fresh plasma stimulate tPA-mediated conversion of Plg to plasmin”, the “tPA protease activity, chromogenic tPA substrate S-2765” value [2] was “At 80-fold dilution, misfolded OVA stimulated tPA protease activity when compared to PBS/DMSO buffer control” and the “Plg-activation assay: tPA-mediated conversion of Plg to plasmin, chromogenic substrate S-2251” value [3] was “Recombinant β2GPI, but not β2GPI purified from fresh plasma stimulate tPA-mediated conversion of Plg to plasmin”.
